This is an account of results in US20130243802A1 (ATLANTIC RESEARCH CENTER INSTITUTE, published 2013).

Assay [1] concerns the target T1, Recombinant Mycobacterium tuberculosis HSP70 (Aalto, Eire) (Mycobacterium tuberculosis, UniProt P9WMJ9 1-625).
T1 construct: also called mtHSP70; Mycobacteria HSP70
The assay is described as follows: CHIEF gel.

The target in a further assay is E. coli orthologue, dnaK (E. coli, UniProt P0A6Y8 2-638). In words: CHIEF (counter HSP isoelectric focusing) gel.
E. coli orthologue, dnaK, sequence (P0A6Y8 2-638 limits assumed): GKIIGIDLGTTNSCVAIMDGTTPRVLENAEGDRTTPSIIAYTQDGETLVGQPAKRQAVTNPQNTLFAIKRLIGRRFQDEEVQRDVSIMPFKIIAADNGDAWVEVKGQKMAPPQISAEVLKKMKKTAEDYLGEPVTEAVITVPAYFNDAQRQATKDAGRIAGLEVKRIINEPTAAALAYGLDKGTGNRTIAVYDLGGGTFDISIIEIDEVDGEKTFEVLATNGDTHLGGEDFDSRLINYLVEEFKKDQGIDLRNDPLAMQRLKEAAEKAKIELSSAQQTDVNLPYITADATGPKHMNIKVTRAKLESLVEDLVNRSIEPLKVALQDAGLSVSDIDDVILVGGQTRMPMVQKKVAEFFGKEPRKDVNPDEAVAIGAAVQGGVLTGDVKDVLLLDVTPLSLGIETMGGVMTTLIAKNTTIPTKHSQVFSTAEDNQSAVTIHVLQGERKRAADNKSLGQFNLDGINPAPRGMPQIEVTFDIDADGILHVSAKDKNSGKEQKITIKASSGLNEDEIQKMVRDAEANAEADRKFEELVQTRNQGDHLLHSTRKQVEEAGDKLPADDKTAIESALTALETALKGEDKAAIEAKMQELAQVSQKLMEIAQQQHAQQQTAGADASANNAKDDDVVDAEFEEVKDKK

T1 sequence (P9WMJ9 whole entry): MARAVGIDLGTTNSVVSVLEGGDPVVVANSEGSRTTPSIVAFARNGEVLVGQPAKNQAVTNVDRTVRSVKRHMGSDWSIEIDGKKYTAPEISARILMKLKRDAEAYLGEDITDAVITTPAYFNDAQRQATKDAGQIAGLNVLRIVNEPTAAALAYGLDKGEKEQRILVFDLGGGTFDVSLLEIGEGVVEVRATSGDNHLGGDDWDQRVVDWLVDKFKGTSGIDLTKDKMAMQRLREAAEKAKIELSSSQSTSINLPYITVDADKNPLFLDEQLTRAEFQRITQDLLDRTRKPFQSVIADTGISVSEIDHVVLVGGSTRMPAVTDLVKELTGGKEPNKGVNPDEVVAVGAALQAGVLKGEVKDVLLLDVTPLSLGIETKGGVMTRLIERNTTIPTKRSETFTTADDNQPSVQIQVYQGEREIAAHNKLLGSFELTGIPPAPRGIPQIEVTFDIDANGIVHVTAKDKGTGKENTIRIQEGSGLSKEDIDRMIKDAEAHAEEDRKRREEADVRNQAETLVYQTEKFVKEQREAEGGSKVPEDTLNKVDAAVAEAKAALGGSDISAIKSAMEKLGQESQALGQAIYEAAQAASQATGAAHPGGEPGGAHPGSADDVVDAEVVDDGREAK

B1: bMBP 100-117 peptide (peptide)
peptide: PSQGKGRGLSLSRFSWGA
notes: Synthetic peptide (New England Peptide)
Regarding B1, the binding result in assay [1] is given as “binds”.

B2: MBP 62-78 peptide (peptide)
peptide: ARTTHYGSLPQKAQGHR
notes: range 62-78; Synthetic candidate peptide; also called MBP peptide 1 (62-78)
Regarding B2, the binding result in assay [1] is listed as “no binding”.

B3: bovine myelin basic protein (other, UniProt P02687 1-169, looked up)
chain: AAQKRPSQRSKYLASASTMDHARHGFLPRHRDTGILDSLGRFFGSDRGAPKRGSGKDGHHAARTTHYGSLPQKAQGHRPQDENPVVHFFKNIVTPRTPPPSQGKGRGLSLSRFSWGAEGQKPGFGYGGRASDYKSAHKGLKGHDAQGTLSKIFKLGGRDSRSGSPMARR
notes: also called bMBP; MBP
For B3, the binding result with E. coli orthologue, dnaK was “no binding”; in assay [1] it was “binds”.
